Data: the RNAGym collection of RNA variant scans (doi:10.1073/pnas.2313332121)
Fewer inactive variants are shown than the library holds.

B1: TPR 5TU (parent)
chain: GGAUCUUCUCGAUCUAACAAAAAAGACAAAUCUGCCACAAAGCUUGAGAGCAUCUUCGGAUGCAGAGGCGGCAGCCUUCGGUGGCGCGAUAGCGCCAACGUUCUCAACUAUGACACGCAAAACGCGUGCUCCGUUGAAUGGAGUUUAUCAUG

Variants of: B1
Assay: polymerase ribozyme fitness, log enrichment relative to wild type (log ratio); higher = more active; in vitro selection for triplet polymerase activity
Procedure, shortened: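 Libraries of mutants in each subunit of a heterodimeric triplet polymerase ribozyme were generated by PCR and transcribed. In triplicate, each went through one in vitro selection round: annealing with biotinylated primer, partner subunit and triplets; frozen incubation at −7 °C; gel excision of extended constructs; streptavidin-bead capture; RT-PCR. Fitness, taken from Illumina sequencing of input and output libraries, is the logarithm of a genotype's enrichment over wild-type enrichment, averaged across replicates with inverse-variance weights. The logarithm is base 2, and genotypes needed ≥10 input reads and ≥1 read per output to be kept.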

Variant	polymerase ribozyme fitness (log ratio)
A17U C85U U104G	-1.01
A19G A20U C36U C96G	-3.67
A19U U44A U53A A73U C85U G136A	≤ -4.2
C87G C93A	-3.63
U53G A64U C69U C76U A98U C108A	≤ -4.2
A22C U102G A110G	≤ -4.2
G58C C85U G117U	-0.00983
G86A U101G	-0.828
A22U G71A	-2.64
G83C U101C A119G A122U U135C U145A	-3.51
C10U G94A	-2.69
G46U A64U C76A C87A G126U	≤ -4.2
C57A G140A	≤ -4.2
A17G A24C A41U A91U A98G	≤ -4.2
G128A G136A	-4.18
C43A G80C G94U	≤ -4.2
A21G A23G G128C	≤ -4.2
C76A G83A U134G	-3.45
A122G U139C	-4.09
A20U C54A A66U U77C C116G C125A U148C	≤ -4.2
U7C U31A G46A G59C C85G C118U	≤ -4.2
A49U G58C G124U	-1.3
A91G C118G	-3.49
A39G G48A U56A C76A C79U C105U	≤ -4.2

Variant	polymerase ribozyme fitness (log ratio)
A22G C38U C95U A107C G128A	≤ -4.2
A30C C35U G88U C116G	-3.99
U55G G68A	-3.69
A3U G59A C99U U144C A150G	≤ -4.2
G50C C87A C114G A150C	≤ -4.2
U82G G143A	-0.245
U13G A21U C57U G68A A73U G92C C103A	≤ -4.2
C96A C118U U148C	-2.57
U53A G86C A91U	≤ -4.2
U7G A26U U56A G59U C75G G84U G94U U130G U146C	≤ -4.2
C35U G92A C96G A98C	-3.23
A91U U145G	≤ -4.2
U56G U78C C99G G124C C125U	-2.94
U53A G88U	≤ -4.2
U56A C75A G141A	≤ -4.2
G48U A73G	-1.15
A28C C32G C63U	≤ -4.2
U4A A121G A137C C149U	-4.16
C14G U15C C18U A39U A49C G80C A110C	≤ -4.2
U4G U31A C54U G86C G92U U148G	≤ -4.2
A22G U53C C54U U78C G117A	-1.92
C5A A23G U33G A66G G83A C87U A113G G124A U127C	-3.78
A52G G74C C87A A113U C125A G140U	≤ -4.2
A30U G86U	≤ -4.2

Variant	polymerase ribozyme fitness (log ratio)
A21U C35U C129U	-0.6
U7A A19U A49U G88U G100U	≤ -4.2
A12G A21G C43U U55A G83U U144G	≤ -4.2
C14G A24C C35U C57A G84U A97U	≤ -4.2
A40C U45A C54U	≤ -4.2
C69U G84A A115G G117U G136C	≤ -4.2
C57G C87A U144C	-3.75
A20U A30G A41G U45A U53G C96G	≤ -4.2
A40C U90C	-4.09
A26G G83A G88A G94U C149G	-4.19
U31G G59A	0.625
C10U A17G A23C A24C A26G U31G A39U U44A C54G C57G G86U A97U A142C	≤ -4.2
C14U G48U A52U A138C A142C U148G	≤ -4.2
A16G U31C C51U U53G C125A G140C	≤ -4.2
C5G U6G U7G C14G A28C A30C G50C C51G A89G C93G G94U C105U C116U G143U	≤ -4.2
C96G A98U	-0.873
C76U C87U C116A A122U U146G	-3.7
C38A A49C G67A C79G	≤ -4.2
A19C A41G G59U A91C A107G A120U	≤ -4.2
G48A C75U C87A G143A	≤ -4.2
A60C C93A A98U A122C	-2.61
G84U C95G A122U G152C	-3.55
C114U G124U	-3.13
C10U C54U U55G	≤ -4.2

Variant	polymerase ribozyme fitness (log ratio)
C57U C96U C103U G117U G136A G141U	≤ -4.2
C96G C116G	0.127
A40C	0.603
C36U A64G G94A A110G	-4.2
A22G G65A A97U	-2.68
C8A A49G G71A C93U G152A	≤ -4.2
C69A G70C A106G C131U A137C	≤ -4.2
G50A U55G A97G U102G	-3.43
G92A A106G	-2.36
A30C C63U A66C A73U C85A A91C U109G	≤ -4.2
G42C U55A G92C A115U A150U	≤ -4.2
G86U A91C C99G U109G	≤ -4.2
G42A A64G U102G	≤ -4.2
A47U C87U A91U C95U C114G A120C	≤ -4.2
A52U G84C C116U U146G	-4.11
U33A C72U A73G G124U	-3.23
G86A U104G	-2.29
A22U C54A A91G	-3.53
A66C C85A	≤ -4.2
A16U C87U C116U	-2.25
A23U A29U C85A A115G G143C	≤ -4.2
G34A G71C C105G G143U	≤ -4.2
G83C G88C	≤ -4.2
G50A U55A A91U U135C	≤ -4.2

Variant	polymerase ribozyme fitness (log ratio)
A3C A22U A49U A52G U56A	-3.02
G92U A147C	-0.377
C5G A23C A66G C69U A91G C105G A120U	≤ -4.2
A41U G80U U101C	-4.09
C27G U55A A73G U77A C87A A142U	≤ -4.2
C43U G86U C125A	≤ -4.2
C10A A17C A41G C54G U55A C85U C95U U104G G126U A138G G152U	≤ -4.2
C27G A37U U55A U56A G70A G84C C108U	≤ -4.2
U104C G124U C125A G143U	-3.85
G71C U109A U111G	≤ -4.2
C38A A60U G84A U134C	-1.6
U13G C36U A52G U55G C69U C76G G83C C114U C149A	≤ -4.2
A17C G34U C51U C57A G86A	-4.06
G58A C95U G143C	-1.9
A17C C27U G71A C93G A113C U134G U151G	≤ -4.2
C57G G59A U78G G84A	≤ -4.2
C57G C69G U101G C118U	-2.81
A17C A30C	-3.82
G11U C38A A40C U53A G58A	-3.76
U6G G50C U56A G65A A73C C96U U139C	≤ -4.2
G42A C114G G133U A150C	≤ -4.2
A16C G83U	-1.56
U9C C10G C35U G94A C103A C108U A115U G140U	≤ -4.2
C8U A26U U44A C85U A115U C118A G133U	≤ -4.2

Variant	polymerase ribozyme fitness (log ratio)
U33A G50C U56A C76A G81C	≤ -4.2
U82A C99A C118U	-1.42
A12G C72U G88U A120U G141U	≤ -4.2
G81C U102C A147G	-3.21
A52G C93A	-3.25
A22U A106G	1.21
C96A C116U G136U A150G	-4.06
U6A A60C A142G	-3.03
A3C A16G A24U G48U G74U G83A A107C U130A	≤ -4.2
A23G A26C G141A C149G	≤ -4.2
C38U C149U A150U	-1.23
U7G A16U A28C G62C G86U C95U A110U	≤ -4.2
C76A A137G	-1.07
A52C G80C G83U	≤ -4.2
G50U C72U A97C	-0.611
U13A U45A G84A	≤ -4.2
A66C C76U	-3.47
C54A U101G C108U A115U G117U C129U G133A	≤ -4.2
C32A G65A G88A C118U A120C A142G U144C	≤ -4.2
A60C G84U	-2.22
A20C A52G C79A G133C U146G	≤ -4.2
C36U G46A A64G G80C	≤ -4.2
C27U A40U G59U A107G C116A	≤ -4.2
C10U C18G A19C A40U C87G G88U	≤ -4.2

Variant	polymerase ribozyme fitness (log ratio)
U4A G143U	-3.47
U55A C57U G81A G84A	-0.555
A60G C72U G124A	0.612
C87U C103G C116U	-1.35
A26U A52C C96A	-3.2
U56A U61G	-1.7
G86A U90G	≤ -4.2
A16C C54G U77G C85U U135C	≤ -4.2
U4G G58A	0.794
A20U G67C	≤ -4.2
C38A C93A G136A	-1.47
A20U A22U C57A C96G C125U	-3.05
A19U A39G C85U U134G	≤ -4.2
U53C G58A C99G	-0.95
A41C G143C	-2.56
A52G A106G G143A	-0.542
A30U C36A C85U G92A C96A	≤ -4.2
A37U G94A U104G	-2.92
A22U C76U	0.515
G67A C87A A98U	≤ -4.2
G42U A64C C79U G88A A106G A107C A147U	≤ -4.2
C35U U135G	-3.62
C72G C99G	≤ -4.2
